Data on five molecules can be found in article PMC5401905, “Regulation of Inducible Potassium Transporter KdpFABC by the KdpD/KdpE Two-Component System in Mycobacterium smegmatis”.

For data set [1], the target named is T1, KdpE (Mycobacterium smegmatis) (UniProt A0R399).
T1 sequence: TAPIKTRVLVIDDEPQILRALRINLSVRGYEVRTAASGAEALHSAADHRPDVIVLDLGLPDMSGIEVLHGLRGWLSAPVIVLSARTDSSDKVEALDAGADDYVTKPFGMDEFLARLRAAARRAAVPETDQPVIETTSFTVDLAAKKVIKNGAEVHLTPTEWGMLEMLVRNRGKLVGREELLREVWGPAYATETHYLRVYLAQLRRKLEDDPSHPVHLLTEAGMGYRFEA
Nature of the data set: competition. To be noted: 10 mM Tris pH 7.5 (20 C), 100 mM KCl, 1 mM EDTA, 0.1 mM DTT, 5% glycerol, 0.010 mg/mL BSA, 0.5 mM Na2ATP; 25 C, 1 h; 6% native PAGE in 0.25x TBE.

The target of data set [2] is T1, KdpE (Mycobacterium smegmatis). Nature of the data set: EMSA. The conditions noted are these: 10 mM Tris pH 7.5 (20 C), 100 mM KCl, 1 mM EDTA, 0.1 mM DTT, 5% glycerol, 0.010 mg/mL BSA, 0.5 mM Na2ATP; 25 C, 1 h; 6% native PAGE in 0.25x TBE.
Data set [3] shares this target. In words: DNase I footprinting. The conditions noted are these: 10 mM Tris pH 7.5 (20 C), 100 mM KCl, 1 mM EDTA, 0.1 mM DTT, 5% glycerol, 0.010 mg/mL BSA, 0.5 mM Na2ATP; 25 C, 1 h; 6% native PAGE in 0.25x TBE.
The target of the next data set is T2, KdpE (Mycobacterium smegmatis, UniProt A0R399 2-230).
T2 sequence: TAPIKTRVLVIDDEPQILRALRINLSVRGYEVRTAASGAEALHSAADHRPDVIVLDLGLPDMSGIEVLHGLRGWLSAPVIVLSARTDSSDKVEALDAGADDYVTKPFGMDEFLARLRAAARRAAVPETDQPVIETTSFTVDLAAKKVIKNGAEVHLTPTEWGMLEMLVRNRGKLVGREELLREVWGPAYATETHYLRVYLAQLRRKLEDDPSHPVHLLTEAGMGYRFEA
In words: EMSA; 0.5 mM ATP; 10 mM Tris pH 7.5 (20 C), 100 mM KCl, 1 mM EDTA, 0.1 mM DTT, 5% glycerol, 0.010 mg/mL BSA, 0.5 mM Na2ATP; 25 C, 1 h; 6% native PAGE in 0.25x TBE. To be noted: protein: recombinant; tags: 6xHis (pET28a); chain copies: 2; blunt.

On to “CCCGAGGCGCCGGCGCCCGGCCGAGCAGGTGCGTCGGGTGTCGGCAGGCGCGGCAGCCCGCGGAGCAAGCAGGGACATGAGCTTCGTCGAGTGGGTCACCCCTCGAACATCCATCAACCGAGCCATGACGACGAGTGTCCTGGCGGAGTCTTGGCCGCTGCTGTACAAACCTTGACGCCGCACTGACAGTCCGTCGGGAACCGCCTGTGCGCCGGCTTCGAACAAACGGTGTCAAATACGGCCGCCGCACCGTAAAGAAACCATCAAGGCCGCGTTCGCGGTCCTGAACTGGGCAGATCC (double strand) [PkdpF 300-bp probe]”, for which the binding result in data set [1], in data set [2] and in data set [3] was “binds” throughout.

B1: FPC-28 (dsDNA)
DNA 1: CCGTAAAGAAACCATCAAGGCCGCGTTC
DNA 2: GAACGCGGCCTTGATGGTTTCTTTACGG
For the molecule B1, the binding result in the data set with KdpE is recorded as “binds”.

B2: FPC-33 (dsDNA)
DNA 1: ACCGTAAAGAAACCATCAAGGCCGCGTTCGCGG
DNA 2: CCGCGAACGCGGCCTTGATGGTTTCTTTACGGT
Take B2: the binding result with KdpE is given as “binds”.

B3: FPC-22 (dsDNA)
DNA 1: CCGTAAAGAAACCATCAAGGCC
DNA 2: GGCCTTGATGGTTTCTTTACGG
Take B3: the binding result in the data set with KdpE is reported as “binds”.

B4: FPC-18 (dsDNA)
DNA 1: AAGAAACCATCAAGGCCG
DNA 2: CGGCCTTGATGGTTTCTT
B4: the binding result in the data set with KdpE is on record as “no binding”.
